This experiment deals with T1, recombinant human lipoprotein lipase (hLPL) (human, UniProt P06858 28-475).
T1 sequence: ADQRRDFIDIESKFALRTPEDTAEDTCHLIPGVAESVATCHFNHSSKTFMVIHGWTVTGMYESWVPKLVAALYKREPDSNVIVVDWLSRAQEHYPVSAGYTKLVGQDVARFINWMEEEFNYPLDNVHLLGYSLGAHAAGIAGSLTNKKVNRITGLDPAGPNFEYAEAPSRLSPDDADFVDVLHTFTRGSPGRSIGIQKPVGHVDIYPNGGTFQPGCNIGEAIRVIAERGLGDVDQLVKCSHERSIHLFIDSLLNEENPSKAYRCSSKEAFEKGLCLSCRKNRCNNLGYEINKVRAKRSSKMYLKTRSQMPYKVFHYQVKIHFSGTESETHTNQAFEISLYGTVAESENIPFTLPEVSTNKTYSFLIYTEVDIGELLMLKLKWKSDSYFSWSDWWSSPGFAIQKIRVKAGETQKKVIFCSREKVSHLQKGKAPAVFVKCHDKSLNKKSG
The experiment in a line: pull-down.

B1: recombinant mouse GPIHBP1 (mGPIHBP1) (natural protein)
chain: QEDGDADPEPENYNYDDDDDEEEEEETNMIPGSRDRAPLQCYFCQVLHSGESCNQTQSCSSSKPFCITLVSHSGTDKGYLTTYSMWCTDTCQPIIKTVGGTQMTQTCCQSTLCNIPPWQNPQVQNPLGGRADSPLESGTRHPQGGKFSHPQVVKAAHPQSDGANLPKSGKANQPQG
For B1, the binding result is reported as “binds”.
